To fix the notation:
T1: ERRα (Homo sapiens, UniProt P11474)
T1 sequence (P11474 1-423): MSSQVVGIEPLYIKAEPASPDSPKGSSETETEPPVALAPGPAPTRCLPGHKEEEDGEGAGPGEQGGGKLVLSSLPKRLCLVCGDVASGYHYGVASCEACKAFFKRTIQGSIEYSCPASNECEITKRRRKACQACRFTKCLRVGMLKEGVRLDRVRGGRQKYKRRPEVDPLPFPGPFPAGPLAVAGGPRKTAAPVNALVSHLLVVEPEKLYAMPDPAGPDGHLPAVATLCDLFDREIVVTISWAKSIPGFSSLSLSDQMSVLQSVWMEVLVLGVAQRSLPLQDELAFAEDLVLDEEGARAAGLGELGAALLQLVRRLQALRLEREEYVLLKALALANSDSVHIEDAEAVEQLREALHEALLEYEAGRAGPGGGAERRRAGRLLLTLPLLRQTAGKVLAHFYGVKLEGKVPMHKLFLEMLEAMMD

T2: His-tagged ERR3 LBD (wild type; residues 229 to 458 of the Estrogen-Related Receptor 3) (human (human and murine receptor are …, UniProt P62508 229-458)
T2 construct: Expressed in E. coli BL21(DE3); Forms a homodimer in the crystal, in gel filtration and in mass spectrometry; SwissProt O75454 is printed for hERR3; also called wt LBD; wt ERR3; not shown: hexahistidine tag from vector pET-15b
T2 sequence: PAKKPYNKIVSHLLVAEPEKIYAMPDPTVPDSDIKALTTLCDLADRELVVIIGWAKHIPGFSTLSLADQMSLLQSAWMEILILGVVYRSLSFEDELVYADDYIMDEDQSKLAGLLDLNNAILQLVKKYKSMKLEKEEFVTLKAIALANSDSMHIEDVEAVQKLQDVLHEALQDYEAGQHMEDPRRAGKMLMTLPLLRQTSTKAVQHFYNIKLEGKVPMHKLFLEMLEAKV

T3: His-tagged ERR3 LBD mutant F435L (human (human and murine receptor are …, UniProt P62508 229-458))
T3 construct: also called ERR3(F435L); PHE435LEU; not shown: hexahistidine tag from vector pET-15b
T3 sequence: T2 sequence with F207L

T4: His-tagged ERR3 LBD mutant A272F (human (human and murine receptor are …, UniProt P62508 229-458))
T4 construct: also called ERR3(A272F); ALA272PHE; not shown: hexahistidine tag from vector pET-15b
T4 sequence: T2 sequence with A44F

T5: His-tagged ERR3 LBD mutant L345I (human (human and murine receptor are …, UniProt P62508 229-458))
T5 construct: not shown: hexahistidine tag from vector pET-15b
T5 sequence: T2 sequence with L117I

T6: His-tagged ERR3 LBD mutant A272L (human (human and murine receptor are …, UniProt P62508 229-458))
T6 construct: also called ERR3(A272L); ALA272LEU; not shown: hexahistidine tag from vector pET-15b
T6 sequence: T2 sequence with A44L

B1: hSRC-1 peptide (SRC-1 NR box 2, amino acids 686-700) (peptide)
peptide: RHKILHRLLQEGSPS
notes: Contains the second LXXLL motif of the RID of SRC-1; also called SRC-1 NR box 2 peptide
B2: GST-tagged SRC-1 RID (Receptor Interaction Domain of hSRC-1, amino acids 614-764) (other, not shown: a dimerising Fc or GST)
chain: HNNDRLSDGDSKYSQTSHKLVQLLTTTAEQQLRHADIDTSCKDVLSCTGTSNSASANSSGGSCPSSHSSLTERHKILHRLLQEGSPSDITTLSVEPDKKDSASTSVSVTGQVQGNSSIKLELDASKKKESKDHQLLRYLLDKDEKDLRSTP
notes: also called GST-SRC-1 RID; RID of SRC-1
B3: His-tagged ERR3 LBD mutant L345I-F435L-F450L (receptor)
chain: T2 sequence with L117I, F207L, F222L
notes: also called triple point mutation; not shown: hexahistidine tag from vector pET-15b
B4: His-tagged ERR3 LBD mutant L345I-F435L (receptor)
chain: T2 sequence with L117I, F207L
notes: not shown: hexahistidine tag from vector pET-15b

The target of one test is T1, ERRα. To be noted: micromolar concentrations; Yang and Chen (1999); cited from earlier work.
Test [1] deals with T2, His-tagged ERR3 LBD (wild type; …). The experiment in a line: crystal structure. An excerpt: A.2 Protein Purification, Crystallization, Data Collection and Processing.
Test [2] has as its target T3, His-tagged ERR3 LBD mutant F435L. The test can be described thus: native polyacrylamide gradient gel, no ligand. The procedure: (§1) After purification the proteins were dialyzed in assay buffer (20 mM Tris.HCl pH 8.0, 200 mM NaCl), and concentrated. […] Protein complexes were resolved on native polyacrylamide gradient gels (8%-25%) using the Phast System (Pharmacia).
(§2) In vitro interaction assays with the RID (amino acids 617-764) of the coactivator SRC-1 has first been performed. […] Complexes were separated on native polyacrylamide gradient gels.

The target of test [3] is T4, His-tagged ERR3 LBD mutant A272F. The experiment in a line: native polyacrylamide gradient gel, no ligand. The procedure: as §1, §2
The target of test [4] is T2, His-tagged ERR3 LBD (wild type; …). The test can be described thus: native polyacrylamide gradient gel, no ligand. The procedure:
as §1, §2

In test [5] the target is T5, His-tagged ERR3 LBD mutant L345I. The test can be described thus: native polyacrylamide gradient gel, no ligand. The procedure:
as §1, §2

The target of test [6] is T6, His-tagged ERR3 LBD mutant A272L. The test can be described thus: native polyacrylamide gradient gel, no ligand. The procedure: as §1, §2
In test [7] the target is B2. The test can be described thus: native polyacrylamide gradient gel, no ligand. The procedure: as §1, §2

Changes are numbered by the printed parent chain. Numbers in names are those of the source.

As to `CC1(C)C(C(Cl)Cl)C2(Cl)C(Cl)C(Cl)C1(Cl)C2(Cl)Cl` (stereo not shown) [toxaphene], the ERRα basal activity result at ERRα is recorded as “decrease”. For the molecule `ClC1=C(Cl)C2(Cl)C3C(Cl)C(Cl)CC3C1(Cl)C2(Cl)Cl` (stereo not shown) [chlordane], at ERRα, the ERRα basal activity result is “decrease”. Turning to B1, in test [1], the binding result is “binds”.

B2: the binding result in test [2], in test [3], in test [4], in test [5] and in test [6] was “binds” throughout. Take B3: in test [7], the binding result was “binds”. For the molecule B4, in test [7], the binding result is “binds”.

The record behind these values is US7279325B2, “Method for identifying antagonist compounds of the estrogen-related receptor 3 (ERR3) by using the x-ray structural coordinates of the ligand binding domain” (priority 2002, dated 2007).
